Data published in article PMC5944921.

Tests used:
[1] = biological target: GLA cross-linked soluble BG505 SOSIP trimer (GLA-SOSIP trimer) (HIV-1 BG505); assay: SPR; ProteOn XPR36, GLC chip with human antibody capture kit; 2G12 captured, then about 600 RU of trimer; dilution series of Fab passed over for 180 s, 600 s buffer; HBS-EP+ pH 7.4 with 1 mg/mL BSA; binding index = signal ratio GLA-SOSIP trimer / SOSIP trimer
[2] = biological target: GLA cross-linked soluble BG505 SOSIP trimer (GLA-SOSIP trimer) (HIV-1 BG505); assay: ELISA; capture ELISA: plates coated with 4 ug/mL mAb 2G12, SOSIP or GLA-SOSIP trimer (0.2 ug/mL) captured, titration series of biotinylated mAbs or ligand; binding index = AUC on GLA-SOSIP trimer / AUC on SOSIP trimer

Substance | fold loss of binding against SOSIP trimer (SPR binding index) [1] | fold loss of binding against SOSIP trimer (ELISA binding index) [2]
PGT145 Fab | 5.3 fold | 
PGT145 (mAb) (antibody) |  | 3.3 fold
